From publication PMC10868436

Biological target: consensus sphingomyelinase
Assay: BLI; ForteBio Octet RED96, […]; 1:1 binding model, […]; triplicate

B1: TPL0674_03_A04 (scFv, V domains shown)
VH: QVQLVQSGSELKKPGASVKVSCKASGYTFTSYAMNWVRQAPGQGLEWMGWINTNTGNPTYAQGFTGRFVFSLDTSVSTAYLQISSLKAEDTAVYYCARDQGGDRHFGYWGQGTTVTVSS
VL: QSELTQPPSASGTPGQRVTISCSGSSSNIGSHRVNWYQQLPGTAPKLLIYSNYHRPAGVPDRFSASKSGTSASLAISGLQSEDEADYYCAAWDDSLNGYVFGTGTQLTVL
  Kd: 31.5 nM

B2: TPL0674_03_F05 (scFv, V domains shown)
VH: EVQLVQSGAEVKKPGASVRVSCKASGYSITNYGISWVRQAPGQGLEWMGWINTYNGNTNYAQKFQGRVTMTRDTSISTAYMELSRLRSDDTAVYYCARDHPYRGMDVWGQGTLVTVSS
VL: SYELTQDPAVSVALGQTVRITCQGDSLRSYYASWYQQKPGQAPVLVIYGKNNRPSGIPDRFSGSSSGNTASLTITGAQAEDEADYYCNSRDSSGNHPHVVFGGGTKLTVL
  Kd: 60.2 nM
